Patent US20200172626A1 (EUTILEX, published 2020)

T1: GST-4-1BB ECD fragment R1.1 fusion polypeptide (human, UniProt Q07011 21-65)
T1 construct: not shown: GST carrier at the N end (pGEX-6T, 27 kDa) and the vector-derived junction residues
T1 chain: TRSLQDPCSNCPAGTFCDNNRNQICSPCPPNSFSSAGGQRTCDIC

T2: GST-4-1BB ECD fragment R1.3 fusion polypeptide (human, UniProt Q07011 31-75)
T2 construct: not shown: GST carrier at the N end (pGEX-6T, 27 kDa) and the vector-derived junction residues
T2 chain: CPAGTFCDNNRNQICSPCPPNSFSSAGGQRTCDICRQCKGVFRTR

T3: GST-4-1BB ECD fragment R1.2 fusion polypeptide (human)
T3 construct: not shown: GST carrier at the N end (pGEX-6T, 27 kDa) and the vector-derived junction residues
T3 chain: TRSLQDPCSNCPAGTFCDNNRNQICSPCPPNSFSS

T4: GST-4-1BB ECD fragment R1.6 fusion polypeptide (human, N-terminal GST fusion, not written)
T4 construct: not shown: GST carrier at the N end (27 kDa, pGEX-6T) and the vector-derived residues at the BamHI/XhoI junctions
T4 chain: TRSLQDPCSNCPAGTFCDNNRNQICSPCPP

T5: GST-4-1BB ECD fragment R1.4 fusion polypeptide (human)
T5 construct: not shown: GST carrier at the N end (pGEX-6T, 27 kDa) and the vector-derived junction residues
T5 chain: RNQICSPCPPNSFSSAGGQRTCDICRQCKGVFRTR


Key:
[1] = target: T6, human 4-1BB expressed on cells (human, UniProt Q07011 24-255); assay: cell-based or functional assay
T6 sequence (Q07011 24-255 limits assumed): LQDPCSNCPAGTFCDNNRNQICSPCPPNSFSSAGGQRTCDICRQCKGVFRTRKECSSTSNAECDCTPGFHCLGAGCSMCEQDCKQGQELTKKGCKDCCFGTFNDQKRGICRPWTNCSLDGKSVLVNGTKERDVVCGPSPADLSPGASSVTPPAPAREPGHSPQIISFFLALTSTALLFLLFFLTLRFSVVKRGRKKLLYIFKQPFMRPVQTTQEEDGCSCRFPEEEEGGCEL

[2] = target: T6, human 4-1BB expressed on cells; assay: FACS on anti-CD3-activated human CD8+ T cells, antibody at 25 ng/ml
Procedure: CD8⁺ T cells were isolated from human PBMCs and activated with 1 μg/ml anti-CD3 antibody for 2 day. The ability of exemplary humanized anti-human 4-1BB antibodies (94K, 94 KV, 94KVT and EU101) described in Example 1 to detect a 4-1BB on the surface of activated […] T cells was assessed relative to an exemplary commercially available anti-4-1BB antibody (4-1BB-PE). Also shown is detection with a BBK-4 a murine anti-human 4-1BB antibody and a 94G1 reference humanized antibody. Treatment with 4-1BB antibodies was at a concentration of 25 ng/ml.
Exemplary antibodies were detected with an anti-mIgG-Dylight488 or anti-hIgG-Dylight488 as appropriate, and analyzed by FACS.

[3] = target: T7, human 4-1BB antigen (H4-1BB) (human, UniProt Q07011 24-186, limits assumed); assay: ELISA of Fab in E. coli supernatant, binding divided by expression level; data not shown
Procedure: ELISA was performed the following day on a supernatant obtained by centrifugation at 12,000 rpm for 10 minutes at 4° C.
A Fab antibody prepared by substituting the constant heavy chain of pCOM-Fab94G1-L with the heavy chain of the backbone 94G1 on the improved 94G1 light chain was called 94/w. Thus, a 94/w variant includes an improved 94G1 light chain in which the 6th amino acid of LCDR3 is substituted with tryptophan (W) ([…]—SEQ ID NO: 4) and a 94G1 heavy chain. IPTG-induced expression in E. coli and ELISA of a 94/w Fab was used to determine binding affinity as described above. Using this method, it was determined that a 94/w Fab antibody has a binding activity 3.5 times higher than that of 94G1 (Fab antibody) (data not shown).

[4] = target: T7, human 4-1BB antigen (H4-1BB); assay: SPR (Biacore 3000, CM5 chip), antibody captured on immobilized anti-human IgG, human 4-1BB antigen (H4-1BB) flowed over
Source text: In vitro binding affinity of exemplary engineered antibody EU101 as described in Example 1, along with that of a reference 94G1 humanized antibody were each determined by Biacore analysis. Anti-human IgG was immobilized on a CM5 chip, and coupled to the Fab antibodies prepared above by flowing over the chip, and ultimately reacted with a human 4-1BB antigen (H4-1BB) to measure the binding activity between the antibody and the antigen (Biacore3000, sensor chip CM5). Ka (1/Ms) and Kd (1/s) values represent how fast an antibody associates with and dissociates from an antigen, respectively. A dissociation constant (KD) is obtain by dividing Kd by Ka (Kd/Ka=[…]).

[5] = target: T1, GST-4-1BB ECD fragment R1.1 fusion …; assay: western blot on E. coli whole cell extracts (FIG. 2B)
Procedure: (§1) FIG. 2A depicts an SDS-PAGE gel of whole cell extracts from cells expressing 4-1BB ECD fusion constructs. Fusion constructs as described above in FIG. 2A were expressed in E. coli BL21 cells induced with 1 mM IPTG, and whole cell extracts resolved by 12% SDS-PAGE. As shown, all fusion constructs (ECD, R1, R1.1, R1.2, R1.3, R1.4, R1.5, and R1.6) have robust protein expression. FIG. 2B depicts a western blot showing binding of an exemplary humanized anti-4-1BB antibody to full length 4-1BB ECD fusion polypeptide, and R1.1, R1.2, R1.3, and R1.6 fusion polypeptides, but not to the R1.4 or R1.5 fusion polypeptides. Immunoblots were performed with an exemplary anti-human 4-1BB antibody. Molecular size markers are indicated in kDa on the left.
(§2) SDS-PAGE was transferred to a nitrocellulose membrane and immunoblotting was performed using an exemplary anti-human 4-1BB antibody, EU101. […] It was also confirmed that a sequence including amino acids 35 to 50 of the 4-1BB extracellular domain is […] for binding an exemplary humanized antibody described herein (FIG. 2B).

[6] = target: T2, GST-4-1BB ECD fragment R1.3 fusion …; assay: as above
Procedure: as §1, §2

[7] = target: T3, GST-4-1BB ECD fragment R1.2 fusion …; assay: as above
Procedure: as §1, §2

[8] = target: T4, GST-4-1BB ECD fragment R1.6 fusion …; assay: as above
Procedure: as §1, §2

[9] = target: T8, GST-4-1BB ECD fragment R2 fusion polypeptide (human, UniProt Q07011 76-130); assay: western blot on GST fusion polypeptides
T8 construct: not shown: GST carrier at the N end (pGEX-6T, 27 kDa) and the vector-derived junction residues
Procedure: Purified protein samples were obtained from transformed bacterial cells by a lysis buffer (e.g., 10 mM Tris-HCl—pH 7.4, 50 mM NaCl, 5 mM EDTA, 30 mM NaF, 0.1 mM Na3VO4, 1% Triton X-100, 0.5% Nonidet P-40, 1 mM PMSF, and protease inhibitor mixture). Approximately 20 μg of each fusion polypeptide sample was diluted in a 4×SDS sample buffer, subjected to electrophoresis on SDS-PAGE gels, and then transferred to nitrocellulose membranes (Millipore, Bedford, Mass.). On the cellulose membranes, anti-human 4-1BB mAb was reacted with anti-mouse IgG horseradish […] (HRP). Binding antibodies were recognized by enhanced chemiluminescence (ECL) (Amersham Pharmacia Biotech, Little Chalfont, UK).
As described above and shown in FIG. 1B, when each of three non-overlapping H4-1BB ECD fragment-GST fusion polypeptides, R1, R2, and R3, were treated with GST-binding, respectively. It was determined that an exemplary humanized anti-4-1BB antibody encompassed by the present disclosure (EU101) binds to an N-terminal fragment construct (R1) fusion construct of approximately 32 kDa (amino acids 1 to 55 of 4-1BB) by western blotting.

[10] = target: T5, GST-4-1BB ECD fragment R1.4 fusion …; assay: western blot on E. coli whole cell extracts with GST fusion polypeptides
Procedure: as §1, §2

IFNgamma secretion by anti-CD3-treated CD8+ T cells, 1.0 ug/ml antibody, day 5, against the control group [1] [fold] | percent of CD8+ T cells on which 4-1BB was detected [2] [%] | binding activity as fold of 94G1 (Fab antibody) [3] [fold] | Kd [4] [nM] | koff [4] [s⁻¹] | binding result [5] | binding result [6] | binding result [7] | binding result [8] | binding result [9] | binding result [10] | Binder
13 | 25.3 |  |  |  |  |  |  |  |  |  | 94KVT (full length 94KVT/w antibody) (antibody, human IgG1, Full length IgG1) heavy: not shown VL: DIVMTQSPAFLSVTPGEKVTITCRASQTISDYLHWYQQKPDQAPKLLIKYASQSISGIPSRFSGSGSGTDFTFTISSLEAEDAATYYCQDGHSWPPTFGQGTKLEIK
 |  | 3.5 |  |  |  |  |  |  |  |  | 94/w Fab antibody (Fab, V domains shown, Fab expressed in E. coli TG1 from a pComb3H-derived vector and tested as culture supernatant; also called 941w) VH: QVQLQQSGAEVKKPGASVKLSCKASGYTFSSYWMHWVRQAPGQGLEWIGEINPGNGHTNYNEKFKSRATMTRDTSTSTAYMELSSLRSEDSAVYYCARSFTTARAFAYWGQGTLVTVSS VL: DIVMTQSPAFLSVTPGEKVTITCRASQTISDYLHWYQQKPDQAPKLLIKYASQSISGIPSRFSGSGSGTDFTFTISSLEAEDAATYYCQDGHSWPPTFGQGTKLEIK
13 | 28.3 |  | 0.0636 | 1.8e-05 | binds | binds | binds | binds | no binding | no binding | EU101 (antibody, human IgG1, L234A L235A, Full length antibody with the 94KVT/w variable domains and a variant IgG1 constant domain; The light chain constant domain is not tied to EU101; also called exemplary humanized anti-4-1BB antibody; exemplary anti-human 4-1BB antibody (EU101)) heavy: not shown VL: DIVMTQSPAFLSVTPGEKVTITCRASQTISDYLHWYQQKPDQAPKLLIKYASQSISGIPSRFSGSGSGTDFTFTISSLEAEDAATYYCQDGHSWPPTFGQGTKLEIK
 | 17.9 |  | 0.602 | 0.000118 |  |  |  |  |  |  | 94G1 reference humanized anti-human 4-1BB antibody (antibody, V domains shown) VH: QVQLQQSGAEVKKPGASVKLSCKASGYTFSSYWMHWVRQAPGQGLEWIGEINPGNGHTNYNEKFKSRATMTRDTSTSTAYMELSSLRSEDSAVYYCARSFTTARAFAYWGQGTLVTVSS VL: DIVMTQSPAFLSVTPGEKVTITCRASQTISDYLHWYQQKPDQAPKLLIKYASQSISGIPSRFSGSGSGTDFTFTISSLEAEDAATYYCQDGHSFPPTFGQGTKLEIK
